# Reference: patent US20090123371A1
# Biological target: EphA2 receptor tyrosine kinase (human) (UniProt P29317)
# Test: cell-based or functional assay
substance,measurement,value
DT390-ephrinA1 (from UniProt P00588 33-422),"cell proliferation assay, U-251 MG GBM cells",15 nM
